Test results from the Human Domainome abundance scans (Beltran et al. 2025).
± gives the uncertainty stated by the source.

B1: Apoptosis-associated speck-like protein containing a CARD, residues 114 to 194; numbered along this chain, Q9ULZ3 (parent)
chain: FIDQHRAALIARVTNVEWLLDALYGKVLTDEQYQAVRAEPTNPSKMRKLFSFTPAWNWTCKDLLLQALRESQSYLVEDLER

Variants of: B1
Assay: abundance fitness (aPCA) (normalised: wild type 0, dead -1); higher = more abundant; growth selection in yeast, the domain comes from the species named
Details: Homo sapiens

Point of comparison: FIDQHRAALIARVTNVEWLLDALYGKVLTDEQYQAVRAEPTNPSKMRKLFSFTPAWNWTCKTLLLQALRESQSYLVEDLER, abundance fitness -0.423 ± 0.1. Against it:
- FIDQHRAALIARVTNVEWLLDALYGKVLTDEQYQAVRAEPTNPSKMRKLFSFTPAWNWTHKDLLLQALRESQSYLVEDLER — higher, 0.185 ± 0.13
- FIDQHRAALIARVTNVEWLLDALYGKVLTDEQYQAVRAEPTNPSKMRKLFSFTPAWNWTPKDLLLQALRESQSYLVEDLER — within error, -0.625 ± 0.11
- FIDQHRAALIARVTNVEWLLDALYGKVLTDEQYQAVRAEPTNPSKMRKLFSFTPAWNWTKKDLLLQALRESQSYLVEDLER — higher, 0.041 ± 0.11
- FIDQHRAALIARVTNVEWLLDALYGKVLTDEQYQAVRAEPTNPSKMRKLFSFTPAWNWTSKDLLLQALRESQSYLVEDLER — higher, 0.167 ± 0.045
- FIDQHRAALIARVTNVEWLLDALYGKVLTDEQYQAVRAEPTNPSKMRKLFSFTPAWNWTIKDLLLQALRESQSYLVEDLER — within error, -0.473 ± 0.15
- FIDQHRAALIARVTNVEWLLDALYGKVLTDEQYQAVRAEPTNPSKMRKLFSFTPAWNWTWKDLLLQALRESQSYLVEDLER — higher, -0.238 ± 0.071
- FIDQHRAALIARVTNVEWLLDALYGKVLTDEQYQAVRAEPTNPSKMRKLFSFTPAWNWTEKDLLLQALRESQSYLVEDLER — higher, 0.285 ± 0.064
- FIDQHRAALIARVTNVEWLLDALYGKVLTDEQYQAVRAEPTNPSKMRKLFSFTPAWNWTRKDLLLQALRESQSYLVEDLER — higher, -0.265 ± 0.047
- FIDQHRAALIARVTNVEWLLDALYGKVLTDEQYQAVRAEPTNPSKMRKLFSFTPAWNWTTKDLLLQALRESQSYLVEDLER — higher, 0.009 ± 0.051
- FIDQHRAALIARVTNVEWLLDALYGKVLTDEQYQAVRAEPTNPSKMRKLFSFTPAWNWTVKDLLLQALRESQSYLVEDLER — within error, -0.461 ± 0.059
- FIDQHRAALIARVTNVEWLLDALYGKVLTDEQYQAVRAEPTNPSKMRKLFSFTPAWNWTQKDLLLQALRESQSYLVEDLER — higher, 0.329 ± 0.068
- FIDQHRAALIARVTNVEWLLDALYGKVLTDEQYQAVRAEPTNPSKMRKLFSFTPAWNWTMKDLLLQALRESQSYLVEDLER — higher, 0.122 ± 0.066
- FIDQHRAALIARVTNVEWLLDALYGKVLTDEQYQAVRAEPTNPSKMRKLFSFTPAWNWTGKDLLLQALRESQSYLVEDLER — higher, 0.084 ± 0.045
- FIDQHRAALIARVTNVEWLLDALYGKVLTDEQYQAVRAEPTNPSKMRKLFSFTPAWNWTDKDLLLQALRESQSYLVEDLER — higher, 0.332 ± 0.12
- FIDQHRAALIARVTNVEWLLDALYGKVLTDEQYQAVRAEPTNPSKMRKLFSFTPAWNWTFKDLLLQALRESQSYLVEDLER — higher, -0.162 ± 0.058
- FIDQHRAALIARVTNVEWLLDALYGKVLTDEQYQAVRAEPTNPSKMRKLFSFTPAWNWTLKDLLLQALRESQSYLVEDLER — within error, -0.456 ± 0.059
- FIDQHRAALIARVTNVEWLLDALYGKVLTDEQYQAVRAEPTNPSKMRKLFSFTPAWNWTCKRLLLQALRESQSYLVEDLER — higher, -0.2 ± 0.071
- FIDQHRAALIARVTNVEWLLDALYGKVLTDEQYQAVRAEPTNPSKMRKLFSFTPAWNWTCKNLLLQALRESQSYLVEDLER — within error, -0.207 ± 0.16
- FIDQHRAALIARVTNVEWLLDALYGKVLTDEQYQAVRAEPTNPSKMRKLFSFTPAWNWTCKWLLLQALRESQSYLVEDLER — within error, -0.609 ± 0.13
- FIDQHRAALIARVTNVEWLLDALYGKVLTDEQYQAVRAEPTNPSKMRKLFSFTPAWNWTCKILLLQALRESQSYLVEDLER — within error, -0.581 ± 0.17
- FIDQHRAALIARVTNVEWLLDALYGKVLTDEQYQAVRAEPTNPSKMRKLFSFTPAWNWTCKQLLLQALRESQSYLVEDLER — higher, -0.037 ± 0.11
- FIDQHRAALIARVTNVEWLLDALYGKVLTDEQYQAVRAEPTNPSKMRKLFSFTPAWNWTCKELLLQALRESQSYLVEDLER — higher, 0.047 ± 0.059
- FIDQHRAALIARVTNVEWLLDALYGKVLTDEQYQAVRAEPTNPSKMRKLFSFTPAWNWTCKPLLLQALRESQSYLVEDLER — lower, -0.768 ± 0.11
- FIDQHRAALIARVTNVEWLLDALYGKVLTDEQYQAVRAEPTNPSKMRKLFSFTPAWNWTCKVLLLQALRESQSYLVEDLER — lower, -0.646 ± 0.086
- FIDQHRAALIARVTNVEWLLDALYGKVLTDEQYQAVRAEPTNPSKMRKLFSFTPAWNWTCKFLLLQALRESQSYLVEDLER — higher, -0.195 ± 0.12
- FIDQHRAALIARVTNVEWLLDALYGKVLTDEQYQAVRAEPTNPSKMRKLFSFTPAWNWTCKSLLLQALRESQSYLVEDLER — higher, -0.168 ± 0.055
- FIDQHRAALIARVTNVEWLLDALYGKVLTDEQYQAVRAEPTNPSKMRKLFSFTPAWNWTCKGLLLQALRESQSYLVEDLER — higher, -0.194 ± 0.06
- FIDQHRAALIARVTNVEWLLDALYGKVLTDEQYQAVRAEPTNPSKMRKLFSFTPAWNWTCKKLLLQALRESQSYLVEDLER — higher, -0.088 ± 0.081
- FIDQHRAALIARVTNVEWLLDALYGKVLTDEQYQAVRAEPTNPSKMRKLFSFTPAWNWTCKALLLQALRESQSYLVEDLER — higher, -0.083 ± 0.066
- FIDQHRAALIARVTNVEWLLDALYGKVLTDEQYQAVRAEPTNPSKMRKLFSFTPAWNWTCKLLLLQALRESQSYLVEDLER — within error, -0.43 ± 0.073
- FIDQHRAALIARVTNVEWLLDALYGKVLTDEQYQAVRAEPTNPSKMRKLFSFTPAWNWTCKCLLLQALRESQSYLVEDLER — within error, -0.265 ± 0.23
- FIDQHRAALIARVTNVEWLLDALYGKVLTDEQYQAVRAEPTNPSKMRKLFSFTPAWNWTCKMLLLQALRESQSYLVEDLER — within error, -0.295 ± 0.1
- FIDQHRAALIARVTNVEWLLDALYGKVLTDEQYQAVRAEPTNPSKMRKLFSFTPAWNWTCKYLLLQALRESQSYLVEDLER — within error, -0.644 ± 0.19
